Legend:
[1] = tested on: O75899; experiment: single-molecule photobleaching step counting (TIRFM); GBR1-EGFP co-expressed with unlabeled GBR2 in HEK293 cells; EGFP spots on the cell membrane; one bleaching step = one heterodimer, two steps = tetramer of two heterodimers (heterodimers to tetramer); resting state; also after 1 mM GABA …; settings: other: single-molecule photobleaching step counting (TIRFM)
[2] = target: the molecule itself; experiment: single-molecule photobleaching step counting (TIRFM); GBR2-EGFP expressed alone at low expression level in HEK293 cells; EGFP spots on the cell membrane; monomer to homodimer

Molecule | percent of spots with one-step bleaching (single heterodimer) [1] | percent of spots with two-step bleaching (tetramer of two heterodimers) [1] | stoichiometry N [2]
GABAB receptor heterodimer GBR1-EGFP/GBR2 | about 50% population | about 30% receptors | –
GBR2-EGFP (receptor, UniProt O75899 42-941, looked up, GABAB receptor subunit 2 (GBR2, GABAB2); source: HEK293, transfected, expressed alone at low expression level, on cells) WARGAPRPPPSSPPLSIMGLMPLTKEVAKGSIGRGVLPAVELAIEQIRNESLLRPYFLDLRLYDTECDNAKGLKAFYDAIKYGPNHLMVFGGVCPSVTSIIAESLQGWNLVQLSFAATTPVLADKKKYPYFFRTVPSDNAVNPAILKLLKHYQWKRVGTLTQDVQRFSEVRNDLTGVLYGEDIEISDTESFSNDPCTSVKKLKGNDVRIILGQFDQNMAAKVFCCAYEENMYGSKYQWIIPGWYEPSWWEQVHTEANSSRCLRKNLLAAMEGYIGVDFEPLSSKQIKTISGKTPQQYEREYNNKRSGVGPSKFHGYAYDGIWVIAKTLQRAMETLHASSRHQRIQDFNYTDHTLGRIILNAMNETNFFGVTGQVVFRNGERMGTIKFTQFQDSREVKVGEYNAVADTLEIINDTIRFQGSEPPKDKTIILEQLRKISLPLYSILSALTILGMIMASAFLFFNIKNRNQKLIKMSSPYMNNLIILGGMLSYASIFLFGLDGSFVSEKTFETLCTVRTWILTVGYTTAFGAMFAKTWRVHAIFKNVKMKKKIIKDQKLLVIVGGMLLIDLCILICWQAVDPLRRTVEKYSMEPDPAGRDISIRPLLEHCENTHMTIWLGIVYAYKGLLMLFGCFLAWETRNVSIPALNDSKYIGMSVYNVGIMCIIGAAVSFLTRDQPNVQFCIVALVIIFCSTITLCLVFVPKLITLRTNPDAATQNRRFQFTQNQKKEDSKTSTSVTSVNQASTSRLEGLQSENHRLRMKITELDKDLEEVTMQLQDTPEKTTYIKQNHYQELNDILNLGNFTESTDGGKAILKNHLDQNPQLQWNTTEPSRTCKDPIEDINSPEHIQRRLSLQLPILHHAYLPSIGGVDASCVSPCVSPTASPRHRHVPPSFRVMVSGL | – | – | 2
